This note sets out measurements from patent US20220204609A1 (SHANDONG BOAN BIOTECHNOLOGY, published 2022).

Positions count from the first letter of the chain named.

The target in assay [1] is T1, Human CD16a(F) (Sino Biological, 10389-H27H-B) (human, UniProt P08637 17-208).
T1 construct: Loaded on streptavidin biosensors
Description: BLI (Octet RED 96), Human CD16a(F) on streptavidin biosensor, 1:1 fit. Background: In BLI a coated tip is dipped into the sample, and binding shifts an interference pattern.

The target of assay [2] is T2, Human CD16a(V) (Sino Biological, 10389-H27H1-B) (human, UniProt P08637 17-208).
T2 construct: Loaded on streptavidin biosensors
T2 sequence (P08637 17-208 F176V limits assumed): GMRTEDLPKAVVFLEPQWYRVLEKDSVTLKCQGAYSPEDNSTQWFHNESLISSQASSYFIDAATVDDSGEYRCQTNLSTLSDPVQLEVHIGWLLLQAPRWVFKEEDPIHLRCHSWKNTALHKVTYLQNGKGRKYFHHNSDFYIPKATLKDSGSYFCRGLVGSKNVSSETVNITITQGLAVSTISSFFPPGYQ
As to the kind of experiment: BLI (Octet RED 96), Human CD16a(V) on streptavidin biosensor, 1:1 fit.

Assay [3] concerns the target T3, Human FcRn (ACROBiosystems, FCM-H82W4) (human, UniProt P55899 24-297; P61769 21-119).
T3 construct: Loaded on streptavidin biosensors
Description: BLI; KD of CLDQMIX-CA808.1-IgG1 against KD of CLDQMIX-CA808.1-IgG1 VLPLL.

Assay [4] addresses T4, Human CD32a(H) (Sino Biological, 10374-H27H1-B) (human, UniProt P12318 34-218).
T4 construct: Loaded on streptavidin biosensors
T4 sequence (looked up): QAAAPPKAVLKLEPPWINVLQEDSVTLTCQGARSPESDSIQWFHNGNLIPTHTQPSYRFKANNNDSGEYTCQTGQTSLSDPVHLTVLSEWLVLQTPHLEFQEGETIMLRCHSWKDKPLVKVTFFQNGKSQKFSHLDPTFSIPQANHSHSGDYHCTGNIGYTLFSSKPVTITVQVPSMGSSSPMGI
The assay is described as above.

For assay [5], the target named is T2, Human CD16a(V) (Sino Biological, …). The description is as above.
In assay [6] the target is T1, Human CD16a(F) (Sino Biological, …). The assay is described as above.
The target in assay [7] is T3, Human FcRn (ACROBiosystems, FCM-H82W4). As to the kind of experiment: BLI (Octet RED 96), Human FcRn on streptavidin biosensor, steady state analysis.
For another assay, the target named is T5, Human CD32b (human, UniProt P31994 43-217, limits assumed).
T5 sequence (looked up): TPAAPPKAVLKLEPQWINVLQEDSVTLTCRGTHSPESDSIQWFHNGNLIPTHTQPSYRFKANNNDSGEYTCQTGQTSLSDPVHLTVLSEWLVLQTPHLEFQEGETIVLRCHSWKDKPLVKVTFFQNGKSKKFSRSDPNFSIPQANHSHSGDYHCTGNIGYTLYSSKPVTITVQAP
As to the kind of experiment: BLI (Octet RED 96), Human CD32b on streptavidin biosensor, steady state analysis.

Assay [8] has as its target T4, Human CD32a(H) (Sino Biological, …). Description: BLI (Octet RED 96), Human CD32a(H) on streptavidin biosensor, steady state analysis.
Assay [9] has as its target T6, Claudin18.2 on cells (human, UniProt P56856-2 1-261). As to the kind of experiment: cell-based or functional assay.
For assay [10], the target named is T6, Claudin18.2 on cells. As to the kind of experiment: cell-based or functional assay. This is another data set of the same source.
Assay [11] deals with T6, Claudin18.2 on cells. As to the kind of experiment: flow cytometry on NUGC4 cells, antibody at 3 µg/mL. (In general: In flow cytometry, cells or beads pass a laser one at a time.)
The target in assay [12] is T6, Claudin18.2 on cells. Description: flow cytometry on NUGC4 cells, antibody at 1.5 µg/mL.
Assay [13] has as its target T6, Claudin18.2 on cells. As to the kind of experiment: flow cytometry on NUGC4 cells, antibody at 0.75 µg/mL.
The target of assay [14] is T6, Claudin18.2 on cells. As to the kind of experiment: flow cytometry on 293T-Claudin18.2 cells, antibody at 3 µg/mL.
Assay [15] concerns the target T7, Claudin18.1 on cells (human, UniProt P56856 1-261).
T7 construct: whole, on cells
As to the kind of experiment: flow cytometry on 293T-Claudin18.1 cells, antibody at 3 µg/mL.

In assay [16] the target is T6, Claudin18.2 on cells. Description: flow cytometry on 293T-Claudin18.2 cells, antibody at 1.5 µg/mL.
The target of assay [17] is T7, Claudin18.1 on cells. As to the kind of experiment: flow cytometry on 293T-Claudin18.1 cells, antibody at 1.5 µg/mL.
In assay [18] the target is T6, Claudin18.2 on cells. As to the kind of experiment: flow cytometry on 293T-Claudin18.2 cells, antibody at 0.75 µg/mL.
Assay [19] addresses T7, Claudin18.1 on cells. As to the kind of experiment: flow cytometry on 293T-Claudin18.1 cells, antibody at 0.75 µg/mL.
Assay [20] addresses T6, Claudin18.2 on cells. Description: flow cytometry on 293T-Claudin18.2 cells, antibody at 0.375 µg/mL.
Assay [21] concerns the target T7, Claudin18.1 on cells. As to the kind of experiment: flow cytometry on 293T-Claudin18.1 cells, antibody at 0.375 µg/mL.
The target in assay [22] is T6, Claudin18.2 on cells. Description: cell-based or functional assay. The source holds these as a separate data set.
The target of assay [23] is T6, Claudin18.2 on cells. Description: flow cytometry on 293T-Claudin18.2 cells, antibody at 3 µg/mL. This is another data set of the same source.
The target of assay [24] is T6, Claudin18.2 on cells. As to the kind of experiment: flow cytometry on 293T-Claudin18.2 cells, antibody at 1.5 µg/mL. This is another data set of the same source.
Assay [25] deals with T6, Claudin18.2 on cells. Description: flow cytometry on 293T-Claudin18.2 cells, antibody at 0.75 µg/mL. This is another data set of the same source.
Assay [26] concerns the target T6, Claudin18.2 on cells. As to the kind of experiment: flow cytometry on 293T-Claudin18.2 cells, antibody at 0.375 µg/mL. This is another data set of the same source.

T3 sequence (P55899 24-297 limits assumed, chain 1 of 2): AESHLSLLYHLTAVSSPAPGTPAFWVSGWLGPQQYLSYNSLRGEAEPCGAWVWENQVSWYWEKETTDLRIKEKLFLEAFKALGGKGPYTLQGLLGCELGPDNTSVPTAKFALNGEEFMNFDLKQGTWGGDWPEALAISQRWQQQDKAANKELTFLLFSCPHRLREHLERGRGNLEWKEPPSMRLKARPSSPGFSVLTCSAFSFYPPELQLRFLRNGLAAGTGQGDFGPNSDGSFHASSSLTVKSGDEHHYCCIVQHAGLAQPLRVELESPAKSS
T3 sequence (P61769 21-119 limits assumed, chain 2 of 2): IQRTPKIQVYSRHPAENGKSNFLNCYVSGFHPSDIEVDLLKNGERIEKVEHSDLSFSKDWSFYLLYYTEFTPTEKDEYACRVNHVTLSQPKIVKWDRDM
T1 sequence (P08637 17-208 limits assumed): as the sequence (P08637 17-208 F176V limits assumed) above, with V160F counted along it

B1: CLDQMix-CA808.1-IgG1-VLPLL (antibody)
heavy: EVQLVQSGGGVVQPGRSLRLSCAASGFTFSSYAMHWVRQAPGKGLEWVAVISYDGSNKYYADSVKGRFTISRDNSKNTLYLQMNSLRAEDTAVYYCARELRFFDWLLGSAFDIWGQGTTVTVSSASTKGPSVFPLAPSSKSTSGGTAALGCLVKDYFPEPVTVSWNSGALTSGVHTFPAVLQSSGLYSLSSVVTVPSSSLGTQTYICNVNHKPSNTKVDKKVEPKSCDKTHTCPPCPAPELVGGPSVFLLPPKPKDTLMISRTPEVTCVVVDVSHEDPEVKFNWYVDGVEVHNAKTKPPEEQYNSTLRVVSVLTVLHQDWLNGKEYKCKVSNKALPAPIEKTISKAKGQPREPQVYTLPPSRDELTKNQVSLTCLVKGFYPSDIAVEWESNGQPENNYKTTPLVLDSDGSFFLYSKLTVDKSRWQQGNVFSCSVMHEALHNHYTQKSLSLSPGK
light: DIVMTQSPSSLSASVGDRVTITCRASQGIRNDLGWYQQKPGKAPKLLIYAASSLQSGVPSRFSGSGSGTDFTLTISSLQPEDFATYYCLQDYNYPRTFGQGTKVEIKRTVAAPSVFIFPPSDEQLKSGTASVVCLLNNFYPREAKVQWKVDNALQSGNSQESVTEQDSKDSTYSLSSTLTLSKADYEKHKVYACEVTHQGLSSPVTKSFNRGEC
For B1, the Kd in [1] came to 119 nM; in [2] it was 54.1 nM; in [7], 5.27 nM; with Human CD32b, 3000 nM; in assay [8], 300 nM. The “Ratio of KD” value in assay [3] worked out at 1.31; in assay [4] it was 1.37; in [5], 1.98; in assay [6] it was 4.75.

B2: CLDQMIX-CA808.1-IgG1 (antibody)
heavy: not shown
light: B1 light
notes: Complete IgG1 made in HEK293 cells from the scFv clone; also called CLDMIX-CA808.1-IgG1
B2: the “ADCC inhibition rate, %, antibody 0.1 µg/mL, 293T-Claudin18.2 target cells, PBMC effectors, LDH” value in the assay with Claudin18.2 on cells [9] turned out to be 39.4%. The “ADCC inhibition rate, %, antibody 1 µg/mL, 293T-Claudin18.2 target cells, PBMC effectors, LDH” value with Claudin18.2 on cells [9] stood at 63.6%. Besides, the “ADCC inhibition rate, %, antibody 10 µg/mL, 293T-Claudin18.2 target cells, PBMC effectors, LDH” value with Claudin18.2 on cells [9] worked out at 57.4%. Moreover, in the assay with Claudin18.2 on cells [10], the “ADCC EC50 (µg/mL), NUGC4 target cells, Jurkat reporter effector cells, Bio-Glo” value was found to be 1.26 µg/mL. Further, the mean fluorescence intensity is 185000 with Claudin18.2 on cells [11]; 138000 with Claudin18.2 on cells [12]; 75600 with Claudin18.2 on cells [13]; 1.38e+06 with Claudin18.2 on cells [14]; 47500 with Claudin18.1 on cells [15]; 1.2e+06 with Claudin18.2 on cells [16]. Also, the mean fluorescence intensity in the assay with Claudin18.1 on cells [17] was determined as 28900; with Claudin18.2 on cells [18] it was 753000; in the assay with Claudin18.1 on cells [19] it was 29400; in the assay with Claudin18.2 on cells [20], 535000; with Claudin18.1 on cells [21], 26000. Moreover, the Kd in assay [1] is 566 nM; in [2] it was 107 nM; in assay [7] it was 6.93 nM; with Human CD32b, 3200 nM; in assay [8] it was 410 nM.

B3: CLD393-C1002-IgG1 (antibody, V domains shown)
VH: QVQLVESGGGVVQPGRSLRLSCAASGFTFSSHDMHWVRQAPGKGLEWVADISDDGSNKNYADSVKGRFTISRDNSKNTLYLQMNSLRAEDAAVYYCAREGLRWFGEFYYSYGMDVWGQGTTVTVSS
VL: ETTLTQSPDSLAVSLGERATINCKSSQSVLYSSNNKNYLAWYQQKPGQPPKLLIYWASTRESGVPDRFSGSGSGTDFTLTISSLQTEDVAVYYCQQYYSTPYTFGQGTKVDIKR
notes: Complete IgG1 made in HEK293 cells; also called CLD387-C1002-IgG1
B3: the “ADCC inhibition rate, %, antibody 0.5 µg/mL, 293T-Claudin18.2 target cells, PBMC effectors, LDH” value in the assay with Claudin18.2 on cells [22] stood at 22%. The “ADCC inhibition rate, %, antibody 5 µg/mL, 293T-Claudin18.2 target cells, PBMC effectors, LDH” value with Claudin18.2 on cells [22] is 49%. Further, the “ADCC inhibition rate, %, antibody 50 µg/mL, 293T-Claudin18.2 target cells, PBMC effectors, LDH” value with Claudin18.2 on cells [22] turned out to be 64%. The mean fluorescence intensity with Claudin18.2 on cells [11] was found to be 5170; with Claudin18.2 on cells [12] it was 4890; in the assay with Claudin18.2 on cells [13] it was 4950; in the assay with Claudin18.2 on cells [23], 1.33e+06; in the assay with Claudin18.2 on cells [24], 1.16e+06; in the assay with Claudin18.2 on cells [25] it was 852000. The molecule also registered a mean fluorescence intensity in the assay with Claudin18.2 on cells [26] of 406000.

B4: CLD393-C1024-IgG1 (antibody, V domains shown)
VH: B3 VH with Q1E, E6Q, H32Y
VL: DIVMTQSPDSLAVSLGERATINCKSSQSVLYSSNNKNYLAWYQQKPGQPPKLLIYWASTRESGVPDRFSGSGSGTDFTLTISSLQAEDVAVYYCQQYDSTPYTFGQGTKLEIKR
notes: Complete IgG1 made in HEK293 cells; also called CLD383-C1024-IgG1
As to B4, the “ADCC inhibition rate, %, antibody 0.5 µg/mL, 293T-Claudin18.2 target cells, PBMC effectors, LDH” value with Claudin18.2 on cells [22] was 15%. For the same molecule, in the assay with Claudin18.2 on cells [22], the “ADCC inhibition rate, %, antibody 5 µg/mL, 293T-Claudin18.2 target cells, PBMC effectors, LDH” value amounted to 47%. In addition, the “ADCC inhibition rate, %, antibody 50 µg/mL, 293T-Claudin18.2 target cells, PBMC effectors, LDH” value with Claudin18.2 on cells [22] stood at 48%. Further, the mean fluorescence intensity in the assay with Claudin18.2 on cells [11] was found to be 6140; in the assay with Claudin18.2 on cells [12] it was 5640; with Claudin18.2 on cells [13], 5210; in the assay with Claudin18.2 on cells [23], 1.37e+06; in the assay with Claudin18.2 on cells [24] it was 1.03e+06; with Claudin18.2 on cells [25], 787000. This molecule also gave a mean fluorescence intensity in the assay with Claudin18.2 on cells [26] of 308000.

What is called Kd is a measure of binding affinity in units of concentration. A lower Kd goes with tighter binding.
